Among the data in patent US20230020406A1 (published 2023) are Fluorescence values, retold here.

The assay deals with T1, AA111-228 DNA-binding domain of RXR-alpha (UniProt P19793 111-228).
T1 construct: Bought recombinant protein (Abcam), adsorbed to the plate; also called RXRa-DBD
T1 sequence (looked up): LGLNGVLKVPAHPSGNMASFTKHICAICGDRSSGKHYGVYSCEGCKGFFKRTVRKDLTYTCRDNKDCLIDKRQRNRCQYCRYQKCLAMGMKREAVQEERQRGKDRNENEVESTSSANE
Briefly: plate assay: 1 ug/well RXRa-DBD adsorbed, 800 ng/well SA488-labelled peptide, fluorometer 485/525 nm. The protocol:
Experiment x3A. […] 1 ug/well recombinant RXRa-DBD (Abcam, Cambridge, Mass.) was adsorbed to wells of a 96-well plate for 60 minutes at RT, then blocked with 200 uL 1% BSA in PBS buffer overnight. […] The plate was incubated for 60 min at room temperature, washed and counted in a standard fluorometer (excitation/emission 485/525 nm). Background (buffer alone) was subtracted.

Ends that are not written are not given here. * marks the point of attachment. Biotin = O=C1N[C@H]2[C@H](CS[C@H]2CCCCC(=O)*)N1

B1: immodulator peptide IM4 (peptide)
peptide: Biotin-RNGNFHPKQCHPALDGQRGKCW
modifications: cysteine pairing not given here; also: complexed with Streptavidin-Alexa 488 conjugate (SA488)
notes: Synthetic peptide
B1: the Fluorescence is 27 fluorescence units (background subtracted).

B2: immodulator peptide IM5 (peptide)
peptide: Biotin-RKGFYKRKQCKPSRGRKRGICW
modifications: cysteine pairing not given here; also: complexed with Streptavidin-Alexa 488 conjugate (SA488)
notes: Synthetic peptide; also called 1M5
As to B2, the Fluorescence is 6800 fluorescence units (background subtracted).

B3: immodulator peptide IM2 (peptide)
peptide: Biotin-KHGLYNLKQCKMSLNGQRGECW
modifications: cysteine pairing not given here; also: complexed with Streptavidin-Alexa 488 conjugate (SA488)
notes: Synthetic peptide
On to B3, for which the Fluorescence was 2 fluorescence units (background subtracted).

B4: immodulator peptide IM1 (peptide)
peptide: Biotin-KNGFYHSRQCETSMDGEAGLCW
modifications: cysteine pairing not given here; also: complexed with Streptavidin-Alexa 488 conjugate (SA488)
notes: Synthetic peptide with an IGFBP-derived core
For the molecule B4, the Fluorescence was 670 fluorescence units (background subtracted).

B5: immodulator peptide IM6 (peptide)
peptide: Biotin-HRGFYRKRQCRSSQGQRRGPCW
modifications: cysteine pairing not given here; also: complexed with Streptavidin-Alexa 488 conjugate (SA488)
notes: Synthetic peptide; also called 1M6
Turning to B5, the Fluorescence was 587 fluorescence units (background subtracted).

B6: immodulator peptide IM3 (peptide)
peptide: Biotin-KKGFYKKKQCRPSKGRKRGFCW
modifications: cysteine pairing not given here; also: complexed with Streptavidin-Alexa 488 conjugate (SA488)
notes: IGFBP-3-derived core; also called 1M3
For B6, the Fluorescence is 6570 fluorescence units (background subtracted).
